Experimental data reported in IntAct's records for PubMed 15507434.

B1: Microphthalmia-associated transcription factor (Homo sapiens), O75030 (parent)
chain: MQSESGIVPDFEVGEEFHEEPKTYYELKSQPLKSSSSAEHPGASKPPISSSSMTSRILLRQQLMREQMQEQERREQQQKLQAAQFMQQRVPVSQTPAINVSVPTTLPSATQVPMEVLKVQTHLENPTKYHIQQAQRQQVKQYLSTTLANKHANQVLSLPCPNQPGDHVMPPVPGSSAPNSPMAMLTLNSNCEKEGFYKFEEQNRAESECPGMNTHSRASCMQMDDVIDDIISLESSYNEEILGLMDPALQMANTLPVSGNLIDLYGNQGLPPPGLTISNSCPANLPNIKRELTACIFPTESEARALAKERQKKDNHNLIERRRRFNINDRIKELGTLIPKSNDPDMRWNKGTILKASVDYIRKLQREQQRAKELENRQKKLEHANRHLLLRIQELEMQARAHGLSLIPSTGLCSPDLVNRIIKQEPVLENCSQDLLQHHADLTCTTTLDLTDGTITFNNNLGTGTEANQAYSVPTKMGSKLEDILMDDTLSPVGVTDPLLSSVSPGASKTSSRRSSMSMEETEHTC

Variants of: B1
Conditions: with tfeb_human TFEB

Variant	effect of a mutation on the interaction
K289R;K423R	with no effect

Variants of: B1
Conditions: with tfe3_human TFE3, P19532
Chain of tfe3_human TFE3, P19532 (P19532 whole entry): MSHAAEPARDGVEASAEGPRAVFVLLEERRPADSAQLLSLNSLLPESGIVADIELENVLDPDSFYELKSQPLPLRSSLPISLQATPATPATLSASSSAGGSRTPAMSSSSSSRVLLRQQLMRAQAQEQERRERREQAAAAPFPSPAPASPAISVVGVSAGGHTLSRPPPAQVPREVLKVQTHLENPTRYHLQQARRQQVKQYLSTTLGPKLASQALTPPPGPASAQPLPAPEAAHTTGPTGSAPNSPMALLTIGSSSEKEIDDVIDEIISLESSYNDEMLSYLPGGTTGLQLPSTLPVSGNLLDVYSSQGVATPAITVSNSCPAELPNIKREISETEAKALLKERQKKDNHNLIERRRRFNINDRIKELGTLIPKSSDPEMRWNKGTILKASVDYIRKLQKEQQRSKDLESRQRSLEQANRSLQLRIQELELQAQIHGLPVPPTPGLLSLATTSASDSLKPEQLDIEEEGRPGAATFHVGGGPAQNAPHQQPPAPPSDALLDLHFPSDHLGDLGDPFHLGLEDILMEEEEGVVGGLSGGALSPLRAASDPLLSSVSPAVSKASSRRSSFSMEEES

Variant	effect of a mutation on the interaction
K289R;K423R	with no effect
